Measured values from patent US20150072922A1, “RNASE 7 ANTIMICROBIAL PEPTIDES” (THE RESEARCH INSTITUTE AT NATIONWIDE CHILDREN'S HOSPITAL, priority 2012, published 2015).
“Also recorded” adds a separate entry of the source. Marks after values point to notes of the source that are not given here. No end group written: not given here. *: point of attachment. His tag = six-residue histidine tag at the N-terminus, N[C@@H](Cc1c[nH]cn1)C(=O)N[C@@H](Cc1c[nH]cn1)C(=O)N[C@@H](Cc1c[nH]cn1)C(=O)N[C@@H](Cc1c[nH]cn1)C(=O)N[C@@H](Cc1c[nH]cn1)C(=O)N[C@@H](Cc1c[nH]cn1)C(=O)*

Experiments:
[1] = test system: Proteus mirabilis (ATCC 7002); assay: Antimicrobial kill (microdilution) assay, MIC/MBC by CFU count; assay type: cell-based; details: 3 hours, 0.1×PBS; for P. mirabilis MIC: lowest concentration that inhibits the growth of 90% of the inoculation; for P. mirabilis MBC: minimum bactericidal concentration
Procedure: Uropathogenic Escherichia coli (UTI89) was grown in Luria broth (LB) medium and plated on LB-agar. Uropathogenic Staphylococcus saprophyticus (ATCC 15305) was grown in LB and plated on Trypticase Soy Agar with 5% sheep blood (Fisher Scientific, Pittsburgh, Pa., USA). Uropathogenic Proteus mirabilis (ATCC 7002) was grown in LB and plated on MacConkey II Agar (Fisher Scientific, Pittsburgh, Pa., USA). These organisms were chosen as the primary organisms that account for a majority of Gram-negative and Gram-positive urinary tract infections (UTI). Anti-RNase 7 antibody was generated in rabbit with recombinant human RNase 7 (Biomatik, Wilmington, Del., USA)
(§1) Antimicrobial activities of the recombinant peptides were estimated with a microdilution assay. Briefly, the test bacteria (10^4 CFUs) were incubated with various concentrations of RNase 7 and each fragment in 50 ul 0.1×PBS buffer for 3 hours at 37° C. After incubation on Agar plates overnight at 37° C., the number of colony-forming units (CFUs) at each peptide concentration was determined. Using untreated bacterial aliquots as baseline, the minimum inhibition concentration (MIC) was defined as the lowest concentration that inhibits the growth of 90% of the inoculation, and the minimum bactericidal concentration (MBC) was defined as the lowest concentration at which less than 99.99% of the initial inoculum is viable.

[2] = test system: Staphylococcus saprophyticus (ATCC 15305); assay: as above; assay type: cell-based; details: for MIC/MBC fold higher than full-length protein, S. saprophyticus: compared to full-length RNase 7; for S. saprophyticus MIC: lowest concentration that inhibits the growth of 90% of the inoculation; for S. saprophyticus MIC / S. saprophyticus MBC: 3 hours, 0.1×PBS; for S. saprophyticus MBC: minimum bactericidal concentration
Procedure: (§2) The antimicrobial activity of RNase 7 and its fragments was estimated using a microdilution assay. Briefly, test bacteria (10^5) were incubated with several concentrations of RNase 7 and each fragment in 50 μl 0.1×PBS buffer for 3 hours in a 37° C. incubator. Each reaction was plated on the appropriate medium and grew overnight at 37° C. The antimicrobial activity was determined by the number of colony-forming units (CFUs) the following day. The minimum inhibition concentration (MIC) is defined as the lowest concentration that inhibits the growth of 90% of the inoculation and the minimum bactericidal concentration (MB C) is defined as the lowest concentration at which less than 99.99% of the initial inoculum is viable.
as §1

Escherichia coli (UTI89) [3] = assay: as above; assay type: cell-based; details: for MIC/MBC fold higher than full-length protein, E. coli: compared to full-length RNase 7; for E. coli MIC: lowest concentration that inhibits the growth of 90% of the inoculation; for E. coli MIC / E. coli MBC: 3 hours, 0.1×PBS; for E. coli MBC: minimum bactericidal concentration; for antimicrobial activity against E. coli (in words): MIC/MBC based, mostly compared to full-length RNase 7
Procedure: as §2, §1

Escherichia coli (UTI89) [4] = assay: SYTOX Green bacterial cell death / membrane permeabilization assay; assay type: cell-based; details: 3 hours, FIG. 1, compared to full-length
Procedure: (§3) Assays of the permeabilization of bacterial membrane were performed with SYTOX green nucleic acid stain (Invitrogen™). The overnight cultures of bacteria were centrifuged at 5000 rpm for 5 min, the pellets were then washed with water and resuspended in water with an OD=0.5. 90 μl of each bacteria were then incubated with 10 μl of peptides with different concentrations for 3 hours at 37° C. in a 96-well plate. 100 μl of 2 μM SYTOX Green (Invitrogen™) were then added to each well and incubated in dark for 15 min. SYTOX green penetrates cells with compromised membranes not the membranes of live cells. The increase of fluorescence was measured using […] filters for excitation and emission wavelengths, respectively. Bacteria alone and bacteria treated with 70% ethanol were used as controls and the fluorescence from each was recorded as Fmin and Fmax. The percentage of cell death at each concentration for each fragment was calculated as below: death %=(F−Fmin)/(Finax−Fmin)*100%
(§4) To confirm the accuracy of our MIC/MBC data, cell death assays using SYTOX Green (Invitrogen), which selectivity labels nucleic acids of cells with compromised membranes of dead/dying cells were performed. Overnight cultures of bacteria were centrifuged at 5000 rpm for 5 minutes. Pellets were then washed with PBS (pH 7.4) and resuspended in PBS to an OD600 of 0.5 for Escherichia coli (UTI89) and OD600 of 0.8 for Staphylococcus saprophyticus. Per manufacturerer's instructions, 90 μl of each bacteria strain were incubated with 100 μl of 2 uM SYTOX Green for 15 minutes. Ten microliters of peptides at various concentrations were added for 3 hours at 37° C. in a 96-well plate. Compromised bacterial membranes of dead/dying cells will be labeled while lives cells are not labeled as noted by Invitrogen. Fluorescence was measured using 485 and 520-nm filters for excitation and emission wavelengths, respectively. Untreated bacteria were used as a 100% live control, and fluorescence was noted as Fmin. To elicit complete killing, bacteria were treated with 70% ethanol for 1 hour. This experimental group's fluorescence was noted as Fmax. The percentage of cell death at each concentration for each fragment was calculated as (Ffragment−Fmin)/(Fmax−Fmin)×100%.

[5] = test system: Staphylococcus saprophyticus; assay: as above; assay type: cell-based; details: 3 hours, FIG. 2, compared to full-length
Procedure: as §3, §4

uropathogenic E. coli = assay: RNase7 antibacterial activity, MIC on strains isolated from positive urine cultures; assay type: cell-based, Escherichia coli; details: uropathogenic E. coli isolated from urine cultures (N=3)
Excerpt: Laboratory bacterial strains from the American Type Culture Collection (ATCC, Manassas, Va.) and strains isolated from positive urine cultures were obtained from the Microbiology Laboratory at Nationwide Children's Hospital.

Molecule	P. mirabilis MIC [1]	P. mirabilis MBC [1]	MIC/MBC fold higher than full-length protein, S. saprophyticus [2]	S. saprophyticus MIC [2]	S. saprophyticus MBC [2]	MIC/MBC fold higher than full-length protein, E. coli (Escherichia coli (UTI89) [3])	E. coli MIC (Escherichia coli (UTI89) [3])	E. coli MBC (Escherichia coli (UTI89) [3])	membrane permeabilization and death, E. coli (in words) (Escherichia coli (UTI89) [4])	membrane permeabilization and death, S. saprophyticus (in words) [5]	mean inhibitory concentration (MIC) (uropathogenic E. coli)	antimicrobial activity against S. saprophyticus (in words) ([2]; MIC/MBC based, mostly compared to full-length RNase 7)	MBC against E. coli (Escherichia coli (UTI89) [3])	MIC against E. coli (Escherichia coli (UTI89) [3])	antimicrobial activity against E. coli (in words) (Escherichia coli (UTI89) [3])	antimicrobial activity against E. coli (in words) (Escherichia coli (UTI89) [3]; listed as 1-71)
F:46-97: recombinant middle RNase 7 fragment, amino acids 46 to 97, beta sheets 2-4, N-terminal His tag ({His tag}-EPFSSVAATCQTPKIACKNGDKNCHQSHGPVSLTMCKLTSGKYPNCRYKEKR; ends and bridges not checked)	3.5 µM	>3.5** uM	two-fold higher	0.44 µM	1.75 µM	two-fold higher	0.88 µM	1.75 µM	enhanced permeabilization and death compared to the full-length protein; also recorded: potent membrane penetrating activity	no activity compared to full length protein; also recorded: negligible activity against S. saprophyticus						
F:30-97: recombinant middle RNase 7 fragment, amino acids 30 to 97, first four beta sheets, N-terminal His tag (protein, ends and bridges not checked, recombinant middle RNase 7 fragment, amino acids 30 to 97, first four beta sheets, N-terminal His tag) {His tag}-INKHTKRCKDLNTFLHEPFSSVAATCQTPKIACKNGDKNCHQSHGPVSLTMCKLTSGKYPNCRYKEKR	>3.5** uM	>3.5** uM	two-fold higher	0.44 µM	1.75* uM	two-fold higher	0.44 µM	0.88 µM	less activity when compared with full-length RNase 7	less activity when compared with full-length RNase 7						
F:1-71: recombinant N-terminal RNase 7 fragment, amino acids 1 to 71 (SEQ ID NO: 3), N-terminal His tag (protein, listed as Homo sapiens, N-terminal His tag) KPKGMTSSQWFKIQHMQPSPQACNSAMKNINKHTKRCKDLNTFLHEPFSSVAATCQTPKIACKNGDKNCHQ	.44 µM	.88 µM		0.23 µM	>0.92* uM	seven-fold higher	1.93** uM	3.86 µM	lower permeability against E. coli	shows permeability against S. Saprophyticus	0.63 µM	shows antimicrobial activity against S. saprophyticus; also recorded: same activity to S. saprophyticus as full length protein	3.86 µM	1.93 µM	lower activity against E. coli; also recorded: markedly reduced activity against E. coli	least activity; also recorded: significantly decreased activity
